From PMC8751750, “Effect of using different co-ligands during ^99mTc-labeling of J18 peptide on SK-MES-1 cell binding and tumor targeting” (Iranian Journal of Basic Medical Sciences, 2021)
Entries after “also recorded” stand apart in the source; their conditions may differ. Where two headings read alike, the source gives them in different places. Peptide text beside a SMILES is read from it.

Assays:
[1] = test system: A-549 cells; conditions: previously reported, listed as 99mTc-HYNIC-(Ser)3-J18 (Tricine); cited from earlier work
Excerpt: Table 1 Overview of affinity binding ^99mTc-HYNIC-(Ser)3-J18 on SK-MES-1 vs A-549 cell line | column: A-549 / Tricine; A-549 / tricine/EDDA

[2] = Biodistribution in normal mice; assay type: in vivo; conditions: i.v. 1 μg in 100 μl (18.5 MBq), mean±SD, n=4; for Intestine uptake (with contents): normal female NMRI mice
Protocol: All animal investigations were approved by Mazandaran University of Medical Sciences Research and Ethical Committee in Sari, Iran. Twelve normal female NMRI mice (20–30 g) were randomly divided into three groups of four. 1 μg of (^99mTc) Tc –HYNIC–J18 peptide in 100 μl of buffer (18.5 MBq) was injected into the tail vein. All animals were sacrificed one, four, and twenty-four hours following radiolabeled peptide injection. Mice were euthanized with an appropriate dose of ketamine/xylazine (Sigma, USA) diluted with sterile water (1:3 v/v). Following deep anesthesia, blood was extracted by heart puncture with a 1-mL syringe washed with diluted heparin. Blood, liver, spleen, salivary gland, stomach, kidney, muscle, and bone samples were dissected and weighed, and radioactivity was measured. Except for the intestines, which were computed as a percentage of the injected dose per gram tissue (percent ID/g), the tissue uptake data was calculated as a percentage of the administered dose per total sample.

[3] = Biodistribution in SK-MES-1 xenografted nude mice; assay type: in vivo, female C57 nu/nu mice; conditions: female, C57 nu/nu, mouse, in vivo, iv, total radioactivity, SK-MES-1 xenograft nude mice, n=4; for tissue uptake at 1 h / tissue uptake at 2 h / tissue uptake at 4 h: mean ± SD
Protocol: The tumor biodistribution and targeting properties of the radiolabeled peptides were carried out in female C57 nu/nu mice bearing SK-MES-1 (Pasture Institute, North Branch and Amol, Iran). The tumor was grafted by subcutaneous injection of SK-MES-1 cells at a concentration of 4×10^6 cells/mouse into the right front flank of the mice and left to grow over a period of 20 days. The mice were ready for biodistribution when tumor size reached 0.7–1 cm^3 in mean diameter, all mice received intravenous co-injections of (^99mTc) Tc-HYNIC-(Ser)3-J18 peptide 1 or (^99mTc )Tc-HYNIC-(Ser)3-J18 peptide 2 (1 μg in 100 μl buffer) after 1, 2, and 4 hr post-injection, respectively (n=4 mice per group). In order to measure the radiopeptides’ nonspecific uptake of the radiopeptides, one group of four animals was injected with 300 μg of non-labeled peptide in a 50 μl buffer. The mice in the blocking group were euthanized 2 hr after the injection. Mice organ and tissue samples were collected, and radioactivity uptake was calculated as a percentage of the administered dose per gram tissue (%ID/g).

[4] = test system: SK-MES-1 cells; experiment: Specific binding (blocking with unlabeled peptide) on SK-MES-1 cells; set-up: species or system human
Protocol: The in vitro receptor binding of the^ 99mTc-labeled peptide was evaluated using SK-MES-1 a human lung squamous cell carcinoma, SKOV-3 human ovarian carcinoma, and A-549 human lung adenocarcinoma epithelial and MCF-7 human breast cancer cell lines. All cell lines were kept at 37 °C in a 5% CO2 incubator and were maintained in Dulbecco’s DMEM-high glucose supplemented with 10% FBS. Cells were plated in 24-well plates at a density of 4×10^5 cells/well in 1 ml of complete medium and incubated for 24 hr to allow in cells to settle. Following a wash with cold serum-free media or PBS, 40 nM radiolabeled peptides in the full medium were given to the cells, which were then incubated at 37 °C for 2 hr. Finally, cells in culture plates were trypsinized and released, and radioactivity in the cells was measured. To determine specific versus nonspecific binding, SK-MES-1 cells were seeded into 12-well plates at a density of 5×10^5 cells/well and incubated with unlabeled peptides at a concentration 500-fold higher than the labeled peptide for 20 min at 37 °C, followed by the addition of the radiolabeled peptide to the wells. These cells were incubated for 2 hr at 37 °C in a humidified incubator.

[5] = test system: SK-MES-1 cells; experiment: Saturation binding assay on SK-MES-1 cells; set-up: species or system human
Protocol: The affinities of (^99mTc) Tc-HYNIC-peptides were determined utilizing a saturation binding experiment with cultivated cells in vitro for determination of the dissociation constant as KD and the number of binding sites per cell (Bmax). SK-MES-1 cells were incubated for 2 hr at 37 °C with increasing concentrations of (^99mTc) Tc- HYNIC- peptides (0.1, 0.5, 1, 2.5, 5, 25, and 50 nM). One dish served as a blocking sample, and it was immersed in a blocking solution containing a 500-fold excess of the non-labeled peptide. For each concentration, three dishes were utilized. Following incubation, the media was withdrawn, and the cells were trypsinized and collected for Gamma counter activity measurement. Prism 5 software (Ver. 5.0) was used to examine the particular binding data using nonlinear regression.

[6] = 1 ug, i.v. 1 μg in 100 μl, read-out: Muscle uptake
[7] = 1 ug, i.v. 1 μg in 100 μl, read-out: Spleen uptake
[8] = 1 ug, i.v. 1 μg in 100 μl, read-out: Tumor uptake
[9] = 1 ug, read-out: Tumor/blood ratio
[10] = 1 ug, read-out: Tumor/bone ratio
[11] = 1 ug, read-out: Tumor/liver ratio
[12] = 1 ug, read-out: Tumor/muscle ratio

In the case of `CC(C)C[C@H](NC(=O)[C@H](CO)NC(=O)[C@H](CCCNC(=N)N)NC(=O)[C@H](CO)NC(=O)[C@H](CO)NC(=O)[C@H](CO)NC(=O)c1ccc(NN)nc1)C(=O)N[C@@H](Cc1c[nH]c2ccccc12)C(=O)N[C@@H](CO)C(=O)N[C@@H](CC(=O)O)C(=O)N[C@@H](Cc1ccccc1)C(=O)N[C@@H](Cc1ccc(O)cc1)C(=O)N[C@@H](C)C(=O)N[C@@H](CO)C(=O)N[C@@H](C)C(=O)N[C@@H](CO)C(=O)N[C@@H](CCCNC(=N)N)C(=O)NCC(=O)N1CCC[C@H]1C(=O)O` [Peptide 1, (^99mTc)Tc-HYNIC-(Ser)3-J18 with tricine, metal not drawn] (HELM PEPTIDE1{[NNc1ccc(C(=O)[*:2])cn1].S.S.S.R.S.L.W.S.D.F.Y.A.S.A.S.R.G.P}$$$$V2.0; C-terminus assumed), the Kd [1] is given as 4.1 ± 1.3 nM, the “Intestine uptake (with contents)” value ([2]; 4 hr) is given as 5.85±2.14 percentage of injected dose per whole sample and the “Intestine uptake (with contents)” value ([2]; 24 hr) is given as 1.11±0.38 percentage of injected dose per whole sample. The tissue uptake at 4 h ([2]; female, NMRI, mouse, spleen, iv, 1 ug, total radioactivity, 4 hr) was 2.24 ± 1.81 %ID/g, the tissue uptake at 1 h ([3]; 1 ug, i.v. 1 μg in 100 μl, read-out: Blood uptake) was 0.18 ± 0.09 %ID/g and the tissue uptake at 1 h [3, 6] was 0.19 ± 0.05 %ID/g. It also gave a tissue uptake at 1 h [3, 7] of 0.25 ± 0.07 %ID/g, a tissue uptake at 1 h ([3]; 1 ug, i.v. 1 μg in 100 μl, read-out: Stomach uptake) of 0.38 ± 0.09 %ID/g and a tissue uptake at 1 h [3, 8] of 0.97 ± 0.03 %ID/g. For the same compound, the tissue to tissue ratio at 1 h [3, 9] was 5.36, the tissue to tissue ratio at 1 h [3, 10] was 7.46 and the tissue to tissue ratio at 1 h [3, 11] was 3.59. The tissue to tissue ratio at 1 h [3, 12] was 5.1, the tissue uptake at 2 h ([3]; 1 ug, 2 hr, i.v. 1 μg in 100 μl, read-out: Heart uptake) was 0.12 ± 0.04 %ID/g and the tissue uptake at 2 h ([3]; 1 ug, 2 hr, i.v. 1 μg in 100 μl, read-out: Liver uptake) was 0.2 ± 0.09 %ID/g. The tissue uptake at 2 h ([3]; 1 ug, 2 hr, i.v. 1 μg in 100 μl, read-out: SG&T (salivary glands and thyroid) uptake) was 0.13 ± 0.05 %ID/g, the tissue uptake at 2 h ([3]; 1 ug, 2 hr, i.v. 1 μg in 100 μl, read-out: Spleen uptake) was 0.15 ± 0.04 %ID/g and the tissue uptake at 2 h ([3]; 1 ug, 2 hr, i.v. 1 μg in 100 μl, read-out: Stomach uptake) was 0.25 ± 0.03 %ID/g. The tissue uptake at 2 h ([3]; 1 ug, 2 hr, i.v. 1 μg in 100 μl, read-out: Tumor uptake) was 0.5 ± 0.03 %ID/g, the tissue to tissue ratio at 2 h ([3]; 1 ug, 2 hr, read-out: Tumor/liver ratio) was 2.5 and the tissue to tissue ratio at 2 h ([3]; 1 ug, 2 hr, read-out: Tumor/muscle ratio) was 6.16. The tissue uptake at 4 h ([3]; 1 ug, i.v. 1 μg in 100 μl, read-out: Bone uptake) was 0.01 %ID/g, the tissue uptake at 4 h ([3]; 1 ug, i.v. 1 μg in 100 μl, read-out: Heart uptake) was 0.07 ± 0.01 %ID/g and the tissue uptake at 4 h ([3]; 1 ug, i.v. 1 μg in 100 μl, read-out: Kidney uptake) was 0.27 ± 0.03 %ID/g. For the same compound, the tissue uptake at 4 h ([3]; 1 ug, i.v. 1 μg in 100 μl, read-out: Liver uptake) was 0.07 ± 0.02 %ID/g, the tissue uptake at 4 h ([3]; 1 ug, i.v. 1 μg in 100 μl, read-out: Lung uptake) was 0.04 ± 0.01 %ID/g and the tissue uptake at 4 h [3, 6] was 0.04 ± 0.01 %ID/g. The tissue uptake at 4 h ([3]; 1 ug, i.v. 1 μg in 100 μl, read-out: SG&T (salivary glands and thyroid) uptake) was 0.03 ± 0.02 %ID/g, the tissue uptake at 4 h [3, 7] was 0.03 ± 0.01 %ID/g and the tissue uptake at 4 h [3, 8] was 0.2 ± 0.09 %ID/g. It also gave a tissue to tissue ratio at 4 h [3, 9] of 3.81, a tissue to tissue ratio at 4 h [3, 10] of 20 and a tissue to tissue ratio at 4 h ([3]; 1 ug, read-out: Tumor/kidney ratio) of 0.74. For the same compound, the tissue to tissue ratio at 4 h [3, 11] was 2.85, the tissue to tissue ratio at 4 h [3, 12] was 5 and the tissue uptake at 2 h ([3]; 2h-blocked (300 μg non-labeled peptide 0.5 hr before), i.v. 1 μg, read-out: Blood uptake) was 0.36 ± 0.02 %ID/g. The tissue uptake at 2 h ([3]; 2h-blocked (300 μg non-labeled peptide 0.5 hr before), i.v. 1 μg, read-out: Heart uptake) was 0.18 ± 0.03 %ID/g, the tissue uptake at 2 h ([3]; 2h-blocked (300 μg non-labeled peptide 0.5 hr before), i.v. 1 μg, read-out: Kidney uptake) was 3.2 ± 0.02 %ID/g and the tissue uptake at 2 h ([3]; 2h-blocked (300 μg non-labeled peptide 0.5 hr before), i.v. 1 μg, read-out: Liver uptake) was 0.23 ± 0.04 %ID/g. It also gave a tissue uptake at 2 h ([3]; 2h-blocked (300 μg non-labeled peptide 0.5 hr before), i.v. 1 μg, read-out: Muscle uptake) of 0.23 ± 0.03 %ID/g, a tissue uptake at 2 h ([3]; 2h-blocked (300 μg non-labeled peptide 0.5 hr before), i.v. 1 μg, read-out: SG&T (salivary glands and thyroid) uptake) of 0.17 ± 0.02 %ID/g and a tissue uptake at 2 h ([3]; 2h-blocked (300 μg non-labeled peptide 0.5 hr before), i.v. 1 μg, read-out: Spleen uptake) of 0.2 ± 0.01 %ID/g. It also gave a tissue uptake at 2 h ([3]; 2h-blocked (300 μg non-labeled peptide 0.5 hr before), i.v. 1 μg, read-out: Stomach uptake) of 0.3 ± 0.02 %ID/g, a tissue to tissue ratio at 2 h ([3]; 2h-blocked (300 μg non-labeled peptide), read-out: Tumor/blood ratio) of 0.8 and a tissue to tissue ratio at 2 h ([3]; 2h-blocked (300 μg non-labeled peptide), read-out: Tumor/liver ratio) of 1.26. The tissue to tissue ratio at 2 h ([3]; 2h-blocked (300 μg non-labeled peptide), read-out: Tumor/muscle ratio) was 1.26, the “reduction of binding by pre-saturation with unlabeled J18 peptide” value ([4]; 500-fold unlabeled peptide 20 min at 37 °C, then radiolabeled peptide 2 hr at 37 °C, listed as 99mTc-peptide 1) was ~11.5 fold and the specific binding ([4]; abstract, listed as 99mTc-peptide 1) was 11.5 fold. For the same compound, the “specific binding to SK-MES-1, in words” value ([4]; listed as 99mTc-J18 peptide with tricine co-ligand) was “higher specific binding to SK-MES-1 in comparison with tricine/EDDA coligand”, the “specific binding to SK-MES-1, in words” value ([4]; listed as 99mTc-peptide 1) was “high specific binding; also recorded: high specificity” and the Bmax ([5]; Figure 4, saturation binding, 2 hr at 37 °C, listed as 99mTc-(tricine)-HYNIC-(Ser)3-J18) was “(2.2±0.2)·10^4 binding sites/cell”. For the same compound, the “binding affinity for SK-MES-1, in words” value ([5]; listed as 99mTc-peptide 1) was “high binding affinity; also recorded: good receptor-binding affinity”, the Kd ([5]; saturation binding, 0.1-50 nM, 2 hr at 37 °C, blocking with 500-fold excess non-labeled peptide, three dishes per concentration, Prism 5 nonlinear regression, listed as 99mTc-HYNIC-(Ser)3-J18 (Tricine)) was 3.1 ± 0.3 nM and the Bmax ([5]; saturation binding, 0.1-50 nM, 2 hr at 37 °C, three dishes per concentration, Prism 5 nonlinear regression, listed as 99mTc-HYNIC-(Ser)3-J18 (Tricine)) was “(2.2± 0.2)×10 ^4 binding sites/cell”.
